Assay results published in patent US20220249611A1 (Stanford University, published 2022).
HA tag and linker = not defined here

T1: human FGFR1 beta (IIIc)-Fc (R&D Systems) (human, UniProt P11362-14 22-285, limits assumed)
T1 construct: Bought reagent; also called FGFR1-Fc; Fc fusion of FGFR1; not shown: Fc domain (detected with anti-human IgG)
T1 sequence (looked up): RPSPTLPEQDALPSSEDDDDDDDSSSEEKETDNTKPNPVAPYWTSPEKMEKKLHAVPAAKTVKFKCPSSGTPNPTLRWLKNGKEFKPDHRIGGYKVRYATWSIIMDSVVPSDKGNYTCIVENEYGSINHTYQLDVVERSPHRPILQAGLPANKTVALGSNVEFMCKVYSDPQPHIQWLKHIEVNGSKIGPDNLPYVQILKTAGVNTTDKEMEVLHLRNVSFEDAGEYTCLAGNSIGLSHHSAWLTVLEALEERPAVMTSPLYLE


Legend:
[1] = target: FGFRs expressed on NIH3T3 cells; assay: equilibrium binding titration on NIH3T3 cells at 4 C, flow cytometry with anti-His antibody
[2] = target: FGFRs expressed on NIH3T3 cells; assay: cell-based or functional assay
[3] = target: T1, human FGFR1 beta (IIIc)-Fc (R&D Systems); assay: flow cytometry, yeast-displayed peptide with soluble FGFR1-Fc
Experimental: FIG. 15. Non-binding of peptide artifacts to FGFR1-Fc. Yeast cells expressing RTTTS or HTTS peptides on their cell surface were incubated with 10 nM FGFRT-Fc. Cells were stained with fluorescent antibodies for expression (α-c-myc) and binding (α-FGFR1-Fc).
50,000 induced yeast cells were incubated with various concentrations of FGFR1-Fc in phosphate-buffered saline with 1 g/L BSA (PBSA) at room temperature. Cells were incubated in sufficiently large volumes to avoid ligand depletion and long enough times (typically 3 to 24 hours) to reach equilibrium. During the last 30 minutes of incubation, yeast cells were incubated with 1:2500 dilution of chicken anti-c-Myc (Invitrogen) in PBSA. Yeast were pelleted, washed, then incubated with 1:200 dilution of secondary antibodies on ice for 10 min: anti-Human IgG-FITC (Sigma Aldrich) against FGFR1-Fc and anti-chicken-IgY-PE (Santa Cruz Biotechnology) against anti-c-myc. Yeast were washed, pelleted, and resuspended in PBSA immediately before analysis by flow cytometry using EMD Millipore Guava EasyCyte. Flow cytometry data were analyzed using FlowJo (v7.6.1). Binding curves were plotted and Kd values were obtained using GraphPad Prism 6.

Molecule | Kd [1] | inhibition of ERK phosphorylation induced by 1 nM wild type FGF1 in NIH3T3 cells (Western blot against phosphoERK), IC50 [2] | binding result [3]
recombinant soluble FGF1 L131R mutant with N-terminal 6x His tag (E. coli, pBAD/His B) (from UniProt P05230 16-155) (ligand) | 10 nM | 1 nM | –
{Aga2p-HA tag and linker}-HTTS-{c‑myc tag} (reading uncertain, not shown: Aga2p of S. cerevisiae, yeast display fusion partner (pCT vector); HA tag and vector linker; C-terminal c-myc tag) [yeast-displayed peptide artifact HTTS] | – | – | no binding (tested: 10 nM)

Other lines, results leading:

Kd [1] | inhibition of ERK phosphorylation induced by 1 nM wild type FGF1 in NIH3T3 cells (Western blot against phosphoERK), IC50 [2] | binding result [3] | Molecule
10 nM | – | – | recombinant soluble wild-type FGF1 with N-terminal 6x His tag (E. coli, pBAD/His B) (from UniProt P05230 16-155) (ligand)
– | – | no binding (tested: 10 nM) | {Aga2p-HA tag and linker}-RTTTS-{c‑myc tag} (reading uncertain, not shown: Aga2p of S. cerevisiae, yeast display fusion partner (pCT vector); HA tag and vector linker; C-terminal c-myc tag) [yeast-displayed peptide artifact RTTTS]
